According to patent US20250074971A1:

Columns and labels:
[1] = biological target: Senecavirus A (SVA) particles (Senecavirus A); experiment: ELISA, coated SVA, Fc control
[2] = biological target: Foot-and-Mouth Disease Virus (FMDV) particles (Foot-and-Mouth Disease Virus); experiment: ELISA, coated FMDV, Fc control

**Q.** Which results are given for Fc?
**A.** A450 [1]: 0.218 A450; A450 [2]: 0.054 A450
